Results as given in patent US20240190983A1 (JULIUS MAXIMILIANS UNIVERSIT T W RZBURG, published 2024).

T1: Human TNFR2 (human, UniProt P20333 23-461)
T1 sequence: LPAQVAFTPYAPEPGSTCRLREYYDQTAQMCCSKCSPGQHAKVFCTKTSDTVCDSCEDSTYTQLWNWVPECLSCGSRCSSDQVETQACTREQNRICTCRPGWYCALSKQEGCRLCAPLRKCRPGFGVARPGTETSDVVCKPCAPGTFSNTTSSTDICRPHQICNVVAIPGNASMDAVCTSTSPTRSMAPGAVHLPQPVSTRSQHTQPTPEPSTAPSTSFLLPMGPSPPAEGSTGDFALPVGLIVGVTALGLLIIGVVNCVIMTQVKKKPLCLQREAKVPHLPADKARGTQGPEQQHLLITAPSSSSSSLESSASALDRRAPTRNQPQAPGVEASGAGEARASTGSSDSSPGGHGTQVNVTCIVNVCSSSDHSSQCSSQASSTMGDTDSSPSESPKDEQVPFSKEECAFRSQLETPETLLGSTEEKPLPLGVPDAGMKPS

B1: C4-Fab2-LC:scFvC4 (antibody)
light: MNFGFSLIFLVLVLKGVQCEVKLVPRQLDYKDDDDKELDIVMTQSHKFMSTSVGDRVSITCKASQDVDTAVAWYQQKPGQSPKLLIYWASTRHTGVPDRFTGSGSGTDYTLTISSVQAEDLARYYCQQYYSVPPTFGGGTKLGSEIKRTVAAPSVFIFPPSDEQLKSGTASVVCLLNNFYPREAKVQWKVDNALQSGNSQESVTEQDSKDSTYSLSSTLTLSKADYEKHKVYACEVTHQGLSSPVTKSFNRGECLEQVQLLQSGPELVKPGASVKLSCKASGYSFTSYDINWVKQRPGQGLEWVGWIYPRDGDTKYNEKFKGKAILTVDTSSNTAYMNLHSLTSEDSAVYFCARLTGPYWYFDVWGTGTTVTVSSRSSTKGPKLEEGEFSEAQLDIVMTQSHKFMSTSVGDRVSITCKASQDVDTAVAWYQQKPGQSPKLLIYWASTRHTGVPDRFTGSGSGTDYTLTISSVQAEDLARYYCQQYYSVPPTFGGGTKLEIK
heavy: MNFGFSLIFLVLVLKGVQCEVKLVPRQLQVQLLQSGPELVKPGASVKLSCKASGYSFTSYDINWVKQRPGQGLEWVGWIYPRDGDTKYNEKFKGKAILTVDTSSNTAYMNLHSLTSEDSAVYFCARLTGPYWYFDVWGTGTTVTVSSGSSSASTKGPSVFPLAPSSKSTSGGTAALGCLVKDYFPEPVTVSWNSGALTSGVHTFPAVLQSSGLYSLSSVVTVPSSSLGTQTYICNVNHKPSNTKVDKKVEPKSCDKTHTCPPCPA
B2: C4(scFv)-IgG1(N297A) (antibody)
light: MNFGFSLIFLVLVLKGVQCEVKLVPRQLDYKDDDDKEFQVQLLQSGPELVKPGASVKLSCKASGYSFTSYDINWVKQRPGQGLEWVGWIYPRDGDTKYNEKFKGKAILTVDTSSNTAYMNLHSLTSEDSAVYFCARLTGPYWYFDVWGTGTTVTVSSRSSTKGPKLEEGEFSEAQLDIVMTQSHKFMSTSVGDRVSITCKASQDVDTAVAWYQQKPGQSPKLLIYWASTRHTGVPDRFTGSGSGTDYTLTISSVQAEDLARYYCQQYYSVPPTFGGGTKLEIKGSEIKRTVAAPSVFIFPPSDEQLKSGTASVVCLLNNFYPREAKVQWKVDNALQSGNSQESVTEQDSKDSTYSLSSTLTLSKADYEKHKVYACEVTHQGLSSPVTKSFNRGEC
heavy: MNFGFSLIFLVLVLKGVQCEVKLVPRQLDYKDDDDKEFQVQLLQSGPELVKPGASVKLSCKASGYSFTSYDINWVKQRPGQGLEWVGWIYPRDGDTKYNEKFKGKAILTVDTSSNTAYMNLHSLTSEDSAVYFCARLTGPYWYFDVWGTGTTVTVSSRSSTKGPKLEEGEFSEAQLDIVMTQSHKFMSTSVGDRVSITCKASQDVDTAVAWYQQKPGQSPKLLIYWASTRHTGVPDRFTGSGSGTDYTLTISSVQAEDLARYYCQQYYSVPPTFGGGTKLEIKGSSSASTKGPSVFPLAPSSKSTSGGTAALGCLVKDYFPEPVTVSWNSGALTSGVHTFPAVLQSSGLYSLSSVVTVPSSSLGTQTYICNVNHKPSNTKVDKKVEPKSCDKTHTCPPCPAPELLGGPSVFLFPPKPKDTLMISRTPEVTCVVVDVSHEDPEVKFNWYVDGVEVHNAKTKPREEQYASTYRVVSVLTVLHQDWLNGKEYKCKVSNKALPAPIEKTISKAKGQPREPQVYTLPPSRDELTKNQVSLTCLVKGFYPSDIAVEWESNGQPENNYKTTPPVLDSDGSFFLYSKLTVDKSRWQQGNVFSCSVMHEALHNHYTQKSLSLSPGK
B3: C4(scFv)-IgG1(N297A)-HC:TNC (antibody)
light: B2 light
heavy: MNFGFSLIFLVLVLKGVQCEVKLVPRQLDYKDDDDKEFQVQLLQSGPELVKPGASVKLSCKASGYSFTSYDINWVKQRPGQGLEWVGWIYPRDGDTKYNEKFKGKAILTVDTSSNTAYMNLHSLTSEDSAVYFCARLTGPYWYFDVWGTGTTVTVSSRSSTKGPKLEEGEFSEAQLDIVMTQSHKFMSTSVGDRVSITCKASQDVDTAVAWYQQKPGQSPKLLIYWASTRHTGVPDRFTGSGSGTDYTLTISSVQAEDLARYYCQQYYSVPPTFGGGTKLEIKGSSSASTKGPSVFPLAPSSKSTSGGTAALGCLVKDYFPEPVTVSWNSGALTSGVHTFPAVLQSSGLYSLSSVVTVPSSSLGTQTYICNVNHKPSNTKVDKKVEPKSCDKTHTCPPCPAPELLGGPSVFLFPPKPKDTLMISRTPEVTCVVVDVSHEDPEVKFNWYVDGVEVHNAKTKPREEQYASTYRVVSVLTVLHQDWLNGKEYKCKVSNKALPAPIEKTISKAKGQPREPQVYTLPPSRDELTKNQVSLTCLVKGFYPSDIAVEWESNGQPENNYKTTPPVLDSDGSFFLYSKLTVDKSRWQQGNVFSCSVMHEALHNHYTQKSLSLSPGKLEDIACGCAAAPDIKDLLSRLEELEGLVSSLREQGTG
B4: C4-Fab1 (Fab)
light: MNFGFSLIFLVLVLKGVQCEVKLVPRQLDYKDDDDKELDIVMTQSHKFMSTSVGDRVSITCKASQDVDTAVAWYQQKPGQSPKLLIYWASTRHTGVPDRFTGSGSGTDYTLTISSVQAEDLARYYCQQYYSVPPTFGGGTKLGSEIKRTVAAPSVFIFPPSDEQLKSGTASVVCLLNNFYPREAKVQWKVDNALQSGNSQESVTEQDSKDSTYSLSSTLTLSKADYEKHKVYACEVTHQGLSSPVTKSFNRGEC
heavy: MNFGFSLIFLVLVLKGVQCEVKLVPRQLDYKDDDDKELQVQLLQSGPELVKPGASVKLSCKASGYSFTSYDINWVKQRPGQGLEWVGWIYPRDGDTKYNEKFKGKAILTVDTSSNTAYMNLHSLTSEDSAVYFCARLTGPYWYFDVWGTGTTVTVSSGSSSASTKGPSVFPLAPSSKSTSGGTAALGCLVKDYFPEPVTVSWNSGALTSGVHTFPAVLQSSGLYSLSSVVTVPSSSLGTQTYICNVNHKPSNTKVDKKVEPKSCDKTHT
B5: C4-Fab1-LC:scFvC4 (antibody)
light: B1 light
heavy: B4 heavy
B6: C4-IgG1(N297A) (antibody)
light: B4 light
heavy: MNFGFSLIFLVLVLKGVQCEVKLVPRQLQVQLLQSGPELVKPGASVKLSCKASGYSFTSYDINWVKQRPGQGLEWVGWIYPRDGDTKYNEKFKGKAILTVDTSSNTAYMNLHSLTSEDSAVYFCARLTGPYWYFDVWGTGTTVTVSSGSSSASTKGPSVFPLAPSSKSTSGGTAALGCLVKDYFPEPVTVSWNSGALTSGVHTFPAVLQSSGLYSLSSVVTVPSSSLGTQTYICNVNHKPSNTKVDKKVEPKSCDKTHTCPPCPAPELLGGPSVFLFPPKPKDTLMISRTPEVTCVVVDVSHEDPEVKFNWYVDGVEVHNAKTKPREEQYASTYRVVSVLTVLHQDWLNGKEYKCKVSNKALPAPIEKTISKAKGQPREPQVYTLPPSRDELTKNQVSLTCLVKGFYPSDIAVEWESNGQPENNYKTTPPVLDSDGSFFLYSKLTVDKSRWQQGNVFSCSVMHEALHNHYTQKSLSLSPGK
B7: C4-Fab2 (antibody)
light: B4 light
heavy: B1 heavy
B8: C4-IgG1(N297A)-HC:TNC (antibody)
light: B4 light
heavy: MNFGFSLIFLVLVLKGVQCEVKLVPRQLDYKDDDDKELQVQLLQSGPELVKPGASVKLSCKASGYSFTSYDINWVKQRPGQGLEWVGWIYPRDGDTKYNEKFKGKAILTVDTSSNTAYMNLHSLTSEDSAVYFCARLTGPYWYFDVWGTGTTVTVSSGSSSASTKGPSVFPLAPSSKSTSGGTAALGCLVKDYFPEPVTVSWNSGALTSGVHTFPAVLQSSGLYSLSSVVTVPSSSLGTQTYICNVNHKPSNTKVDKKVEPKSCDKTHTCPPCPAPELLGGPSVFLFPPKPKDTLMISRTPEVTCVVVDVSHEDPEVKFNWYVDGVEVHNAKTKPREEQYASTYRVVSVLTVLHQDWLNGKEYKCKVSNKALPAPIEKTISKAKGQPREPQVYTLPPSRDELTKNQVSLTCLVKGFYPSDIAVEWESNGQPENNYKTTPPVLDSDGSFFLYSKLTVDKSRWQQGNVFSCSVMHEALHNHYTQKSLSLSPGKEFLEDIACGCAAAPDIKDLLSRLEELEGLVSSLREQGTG

These binders were tested against T1, Human TNFR2 (assay: cell-based or functional assay).

Point of comparison: B8, “Activity I (IL8)” value 100 ng/mL. Against it:
- B1 — 2-fold lower, 50 ng/mL
- B4 — lower, 0 ng/mL
- B5 — 10-fold lower, 10 ng/mL
- B6 — lower, 0 ng/mL
- B7 — lower, 0 ng/mL

Point of comparison: B3, “Activity II (tox)” value 10 ng/mL. Against it:
- B2 — 2-fold higher, 20 ng/mL
- B4 — lower, 0 ng/mL
- B5 — 2-fold higher, 20 ng/mL
- B6 — lower, 0 ng/mL
- B7 — lower, 0 ng/mL
